Assay results from patent US20260216326A1 (PROMETHEUS BIOSCIENCES, published 2026).
Residue numbers refer to the chain shown, from its start.

T1: human TL1A (Fitzgerald #30R-AT070) (human, UniProt O95150 72-251, limits assumed)
T1 construct: Coated on the ELISA plate at 1 ug/mL; also called TNFSF15
T1 sequence (looked up): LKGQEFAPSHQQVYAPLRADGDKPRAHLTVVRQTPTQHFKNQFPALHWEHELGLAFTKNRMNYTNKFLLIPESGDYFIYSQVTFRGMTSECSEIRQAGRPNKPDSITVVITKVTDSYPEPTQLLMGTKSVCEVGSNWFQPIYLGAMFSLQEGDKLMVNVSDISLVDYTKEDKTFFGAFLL

B1: A74 (antibody, human IgG1, V domains shown)
VH: QVQLVQSGAEVKKPGASVKVSCKASGFDIQDTYMHWVRQAPGQGLEWMGRIEPASGHIKYDPKFQGRVTITTDTSTSTVYMELSSLRSEDTAVYYCARSGGLPDWWGQGTTVTVSS
VL: EIVLTQSPGTLSLSPGERATLSCRASSSVSYMYWYQQKPGQAPRPWIYATSNLASGIPDRFSGSGSGTDFTLTISRLEPEDFAVYYCQQWEGNPRTFGGGTKLEIK
notes: human IgG1/kappa (pFuse vectors), culture supernatant
B2: A125 (antibody, human IgG1, V domains shown)
VH: B1 VH with R38K, A40R, E52D, I58T, G66V, V68A, T72R, V79A, M81L, W105V
VL: B1 VL with P45L, W46L, E91K
notes: as for B1
B3: A95 (antibody, human IgG1, V domains shown)
VH: B1 VH with V68A
VL: B1 VL
notes: as for B1
B4: A122 (antibody, human IgG1, V domains shown)
VH: B1 VH with A40R, M48I, E52D, I58T, G66V, V68A, T72R, V79A, M81L, W105V
VL: B1 VL with P45L, W46L, E91K
notes: as for B1
B5: A91 (antibody, human IgG1, V domains shown)
VH: B1 VH with I70M, T72R, V79A
VL: B1 VL with P45L, W46L
notes: as for B1
B6: A104 (antibody, human IgG1, V domains shown)
VH: B1 VH with M48I, E52D, I58T, G66V, V68A, V79A, M81L, W105V
VL: B1 VL with P45L, W46L, E91K
notes: as for B1
B7: A123 (antibody, human IgG1, V domains shown)
VH: B1 VH with A40R, M48I, E52D, I58T, G66V, T72R, V79A, M81L, W105V
VL: B1 VL with P45L, W46L, E91K
notes: as for B1
B8: A102 (antibody, human IgG1, V domains shown)
VH: B1 VH with R38K, A40R, M48I, E52D, I58T, G66V, V79A, M81L, W105V
VL: B1 VL with P45L, W46L, E91K
notes: as for B1
B9: A107 (antibody, human IgG1, V domains shown)
VH: B1 VH with R38K, A40R, M48I, E52D, I58T, G66V, V68A, V79A, M81L, W105V
VL: B1 VL with P45L, W46L
notes: as for B1
B10: A127 (antibody, human IgG1, V domains shown)
VH: B1 VH with R38K, A40R, E52D, I58T, G66V, V79A, M81L, W105V
VL: B1 VL with P45L, W46L, E91K
notes: as for B1
B11: A86 (antibody, human IgG1, V domains shown)
VH: B1 VH with I70M, T72R
VL: B1 VL with P45L, W46L, F70Y
notes: as for B1
B12: A110 (antibody, human IgG1, V domains shown)
VH: B1 VH with R38K, I70M, T72R
VL: B1 VL
notes: as for B1
B13: A124 (antibody, human IgG1, V domains shown)
VH: B1 VH with A40R, M48I, E52D, I58T, G66V, V79A, M81L, W105V
VL: B1 VL with P45L, W46L, E91K
notes: as for B1
B14: A120 (antibody, human IgG1, V domains shown)
VH: B1 VH with I58V, I70M, T72R
VL: B1 VL
notes: as for B1
B15: A129 (antibody, human IgG1, V domains shown)
VH: B1 VH with A40R, E52D, I58T, G66V, V79A, M81L, W105V
VL: B1 VL with P45L, W46L, E91K
notes: as for B1
B16: A117 (antibody, human IgG1, V domains shown)
VH: B1 VH with E52D, I70M, T72R
VL: B1 VL
notes: as for B1
B17: A92 (antibody, human IgG1, V domains shown)
VH: B1 VH with I70M, T72R, M81L
VL: B1 VL with P45L, W46L
notes: as for B1
B18: A98 (antibody, human IgG1, V domains shown)
VH: B1 VH with G66V, V68A, I70M, T72R
VL: B1 VL with P45L, W46L
notes: as for B1
B19: A119 (antibody, human IgG1, V domains shown)
VH: B1 VH with I58T, I70M, T72R
VL: B1 VL
notes: as for B1
B20: A96 (antibody, human IgG1, V domains shown)
VH: B1 VH with V68A, I70M, T72R
VL: B1 VL
notes: as for B1
B21: A115 (antibody, human IgG1, V domains shown)
VH: B1 VH with G66V, V68A, I70M, T72R
VL: B1 VL
notes: as for B1
B22: A118 (antibody, human IgG1, V domains shown)
VH: B1 VH with M48I, E52D, I70M, T72R
VL: B1 VL
notes: as for B1
B23: A114 (antibody, human IgG1, V domains shown)
VH: B1 VH with G66V, I70M, T72R
VL: B1 VL
notes: as for B1
B24: A85 (antibody, human IgG1, V domains shown)
VH: B1 VH with I70M, T72R
VL: B1 VL with P45L, W46L, I57V
notes: as for B1
B25: A112 (antibody, human IgG1, V domains shown)
VH: B1 VH with R38K, A40R, I70M, T72R
VL: B1 VL
notes: as for B1
B26: A97 (antibody, human IgG1, V domains shown)
VH: B1 VH with G66V, I70M, T72R
VL: B1 VL with P45L, W46L
notes: as for B1
B27: A101 (antibody, human IgG1, V domains shown)
VH: B1 VH with R38K, A40R, E52D, I58T, G66V, V68A, V79A, M81L, W105V
VL: B1 VL with P45L, W46L, E91K
notes: as for B1
B28: A90 (antibody, human IgG1, V domains shown)
VH: B1 VH with I70M, T72R
VL: B1 VL with L11M, P45L, W46L
notes: as for B1
B29: A108 (antibody, human IgG1, V domains shown)
VH: B1 VH with Q1E, I70M, T72R
VL: B1 VL
notes: as for B1
B30: A126 (antibody, human IgG1, V domains shown)
VH: B1 VH with R38K, A40R, E52D, I58T, G66V, T72R, V79A, M81L, W105V
VL: B1 VL with P45L, W46L, E91K
notes: as for B1
B31: A116 (antibody, human IgG1, V domains shown)
VH: B1 VH with G66V, T72R
VL: B1 VL
notes: as for B1
B32: A105 (antibody, human IgG1, V domains shown)
VH: B1 VH with R38K, A40R, M48I, E52D, I58T, G66V, V68A, W105V
VL: B1 VL with P45L, W46L, E91K
notes: as for B1
B33: A99 (antibody, human IgG1, V domains shown)
VH: B1 VH with G66V, T72R
VL: B1 VL with P45L, W46L
notes: as for B1
B34: A103 (antibody, human IgG1, V domains shown)
VH: B1 VH with R38K, A40R, M48I, E52D, I58T, G66V, T72R, V79A, M81L, W105V
VL: B1 VL with P45L, W46L, E91K
notes: as for B1
B35: A128 (antibody, human IgG1, V domains shown)
VH: B1 VH with A40R, E52D, I58T, G66V, T72R, V79A, M81L, W105V
VL: B1 VL with P45L, W46L, E91K
notes: as for B1
B36: A89 (antibody, human IgG1, V domains shown)
VH: B1 VH with I70M, T72R
VL: B1 VL with L13A, P45L, W46L
notes: as for B1
B37: A109 (antibody, human IgG1, V domains shown)
VH: B1 VH with I70M, T72R, V79A
VL: B1 VL
notes: as for B1
B38: A75 (antibody, human IgG1, V domains shown)
VH: B1 VH with V68A
VL: B1 VL
notes: as for B1
B39: A113 (antibody, human IgG1, V domains shown)
VH: B1 VH with G66V, V68A, T72R
VL: B1 VL
notes: as for B1
B40: A121 (antibody, human IgG1, V domains shown)
VH: B1 VH with A40R, E52D, I58T, G66V, V68A, V79A, M81L, W105V
VL: B1 VL with P45L, W46L, E91K
notes: as for B1
B41: A88 (antibody, human IgG1, V domains shown)
VH: B1 VH with I70M, T72R
VL: B1 VL with P45L, W46L, F70Y, L77V
notes: as for B1
B42: A111 (antibody, human IgG1, V domains shown)
VH: B1 VH with A40R, I70M, T72R
VL: B1 VL
notes: as for B1
B43: A87 (antibody, human IgG1, V domains shown)
VH: B1 VH with I70M, T72R
VL: B1 VL with P45L, W46L, L77V
notes: as for B1
B44: A100 (antibody, human IgG1, V domains shown)
VH: B1 VH with A40R, M48I, E52D, I58T, G66V, V68A, V79A, M81L, W105V
VL: B1 VL with P45L, W46L, E91K
notes: as for B1
B45: A94 (antibody, human IgG1, V domains shown)
VH: B1 VH with G66V, V68A, T72R
VL: B1 VL with P45L, W46L
notes: as for B1
B46: A93 (antibody, human IgG1, V domains shown)
VH: B1 VH with I70M, T72R, V79A, M81L
VL: B1 VL with P45L, W46L
notes: as for B1

Target: T1, human TL1A (Fitzgerald #30R-AT070)
Experiment: ELISA titration, coated human TL1A, culture supernatant

| Binder | Kd [nM] |
| --- | --- |
| B1 | 0.141 |
| B2 | 0.116 |
| B3 | 0.105 |
| B4 | 0.112 |
| B5 | 0.132 |
| B6 | 0.108 |
| B7 | 0.104 |
| B8 | 0.104 |
| B9 | 0.071 |
| B10 | 0.07 |
| B11 | 0.129 |
| B12 | 0.056 |
| B13 | 0.091 |
| B14 | 0.085 |
| B15 | 0.099 |
| B16 | 0.094 |
| B17 | 0.121 |
| B18 | 0.14 |
| B19 | 0.087 |
| B20 | 0.095 |
| B21 | 0.058 |
| B22 | 0.083 |
| B23 | 0.051 |

| Binder | Kd [nM] |
| --- | --- |
| B24 | 0.13 |
| B25 | 0.054 |
| B26 | 0.071 |
| B27 | 0.096 |
| B28 | 0.107 |
| B29 | 0.055 |
| B30 | 0.123 |
| B31 | 0.053 |
| B32 | 0.11 |
| B33 | 0.102 |
| B34 | 0.107 |
| B35 | 0.111 |
| B36 | 0.117 |
| B37 | 0.05 |
| B38 | 0.259 |
| B39 | 0.05 |
| B40 | 0.106 |
| B41 | 0.081 |
| B42 | 0.068 |
| B43 | 0.121 |
| B44 | 0.084 |
| B45 | 0.081 |
| B46 | 0.117 |
